Measurements reported in paper PMC3946434.
Read-outs that look alike come from different tables or passages of the source.

Columns and labels:
Assay in all cases: AUC
[1] = target: HIV-1 capsid C-terminal domain construct CA146-231 (HIV-1) (UniProt P12493)
[2] = target: HIV-1 capsid C-terminal domain construct CA146-231 (HIV-1) (UniProt P12493); remark: listed apart in the source
[3] = target: HIV-1 capsid C-terminal domain construct CA144-231 (HIV-1) (UniProt P12493)
[4] = target: wild-type, full length HIV-1 capsid protein (CAFL, residues 1-231) (HIV-1) (UniProt P12493)

Substance: HIV-1 capsid C-terminal domain construct CA146-231 (from UniProt P12493 278-363) (domain or fragment)
- Kd [1]: 24 µM
- Kd [2]: 23 µM

Substance: HIV-1 capsid C-terminal domain construct CA144-231 (from UniProt P12493 276-363) (domain or fragment)
- Kd [3]: 16 µM

Substance: wild-type, full length HIV-1 capsid protein (CAFL, residues 1-231) (from UniProt P12493) (natural protein)
- Kd [4]: 20 µM
